Laboratory results taken from US10941200B2, “TREM2 cleavage modulators and uses thereof” (Deutsches Zentrum Für Neurodegenerative Erkrankungen EV, priority 2016, dated 2021).
Entries after “also recorded” stand apart in the source; their conditions may differ.

T1: human TREM2 (Homo sapiens, UniProt Q9NZC2)
T1 construct: HEK293 Flp-In cells either expressing human full-length TREM2 or empty vector; expressed in transfected cells
T1 sequence (Q9NZC2 19-230): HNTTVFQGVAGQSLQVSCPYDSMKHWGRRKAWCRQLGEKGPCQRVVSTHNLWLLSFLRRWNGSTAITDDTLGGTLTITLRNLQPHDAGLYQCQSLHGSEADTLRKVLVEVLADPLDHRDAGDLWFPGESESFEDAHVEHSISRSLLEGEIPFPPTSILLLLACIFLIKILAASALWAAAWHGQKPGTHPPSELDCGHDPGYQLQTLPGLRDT

B1: clone 14D8: rat monoclonal antibody against TREM2 cleavage site peptide; heavy chain variable SEQ ID NO: 24, light chain variable SEQ ID NO: 34 (antibody, V domains shown)
VH: EVKLLESGGGLVQPGGSMRLSCAASGFTFTDFYMNWIRQPAGKAPEWLGLIRNKANGYTTVYNPSVKGRFTISRDNTQNMLYLQMNTLRGEDTATYYCARIGINNGGSLDYWGQGVMVTVSS
VL: DILINQSPASLTVSTGEKVTMSCRSSQSLLYSEKNQDYLAWYQQKPGQFPKLLIYGASYRHTGVPDRFTGSGSGTDFTLTISSVQAEDLADYYCEQTYSYPYTFGAGTKLELK
modifications: Clone 14D8 variable region of the heavy chain; Clone 14D8 variable region of the light chain

What was measured:
[1] = molecular target: T1, human TREM2; experiment: sTREM2 ELISA of conditioned media from HEK293 Flp-In cells stably overexpressing wt TREM2 (ectodomain shedding); format: cell-based
Description: (§1) 1*10^6-1.5*10^6 cells were seeded in the 6-well format. 24 hours later fresh medium was added to the cells. Antibody clones as generated by Dr. Feederle (Helmholtz Center Munich, Core Facility Monoclonal Antibody Development) were added simultaneously, i.e. for overnight treatment (about 24 hrs), at a final concentration of 50 μg/mL. On the next day, conditioned media and cells were collected and processed as described under “Preparation of conditioned media, cell lysates, and immunoblotting”.
(§2) ADAM10 inhibitor G1254023X (5 μM final concentration) and a control monoclonal antibody, which is specific for the C terminus of human TREM2, were used as positive and negative controls, respectively.
For quantitation of levels of sTREM2 in cell culture supernatants, an ELISA for human sTREM2 was established using the Meso Scale Discovery SECTOR Imager 2400. Streptavidin-coated 96-well plates were blocked overnight at 4° C. in 0.5% bovine serum albumin (BSA) and 0.05% Tween 20 in PBS (pH 7.4) (blocking buffer). For detection of human sTREM2, plates were shaken for 1 hour at room temperature with biotinylated polyclonal goat anti-human TREM2 capture antibody (0.25 mg/ml; R&D Systems) diluted in blocking buffer. Plates were washed subsequently four times with 0.05% Tween 20 in PBS (washing buffer) and incubated for 2 hours at room temperature with samples diluted 1:4 in 0.25% BSA and 0.05% Tween 20 in PBS (pH 7.4) (assay buffer) supplemented with protease inhibitors (Sigma). Recombinant human TREM2 protein (Holzel Diagnostika) was diluted in assay buffer in a two-fold serial dilution and used for the standard curve (concentration range, 4000 to […]). Plates were washed three times for 5 min with washing buffer before incubation for 1 hour at room temperature with mouse monoclonal anti-TREM2 antibody (1 mg/ml; Santa Cruz Biotechnology; B-3) diluted in blocking buffer. After three additional washing steps, plates were incubated with a SULFO-TAG-labeled anti-mouse secondary antibody (1:1000; Meso Scale Discovery) and incubated for 1 hour in the dark. Last, plates were washed three times with washing buffer followed by two washing steps in PBS and developed by adding Meso Scale Discovery Read buffer. The light emission at 620 nm after electrochemical stimulation was measured using the Meso Scale Discovery SECTOR Imager 2400 reader. To quantify the levels of sTREM2 secreted from HEK293 Flp-In cells, conditioned media from biological replicates were analyzed in duplicates. The sTREM2 standard curves were generated using the MasterPlex ReaderFit software (MiraiBio Group, Hitachi Solutions America) through a five-parameter logistic fit. Levels of sTREM2 were subsequently normalized to levels of immature TREM2 as quantified from Western Blots.

[2] = molecular target: T1, human TREM2; experiment: Immunoblotting of mature TREM2 in membrane fractions of HEK cells stably overexpressing wt TREM2; format: cell-based
Description: (§3) HEK293 Flp-In cells stably overexpressing TREM2 or TREM2-DAP12 cDNA constructs were seeded at a density of 1.5×10^5/cm^2 and medium changed 48 h post seeding. Conditioned medium was collected after 18-20 h, immediately cooled down on ice, centrifuged at 13,000 rpm for 20 min at 4° C. and supernatants frozen at −20° C. until analysis. Supernatants were directly subjected to standard 15% SDS-PAGE. To prepare membrane fractions, cells were washed twice with ice-cold PBS, resuspended in ice-cold hypotonic buffer (0.01 M Tris, pH 7; 1 mM EDTA; 1 mM EGTA), freshly supplemented with protease inhibitor (Sigma) and incubated on ice for 30 min. After snap freezing in liquid
nitrogen and thawing, the disrupted cells were centrifuged at 13,000 rpm for 45 min at 4° C.
The resulting pellet was resuspended in STE lysis buffer (150 mM NaCl, 50 mM Tris-HCl,
pH 7.6, 2 mM EDTA, 1% Triton-X 100), incubated for 20 min on ice and clarified by centrifugation at 13,000 rpm for 30 min at 4° C. Protein concentrations were measured using the BCA method, equal amounts of protein were mixed with Laemmli sample buffer, supplemented with beta mercaptoethanol, separated by SDS-PAGE and transferred onto polyvinylidene difluoride membranes (Hybond P; Amersham Biosciences, Aylesbury, UK). Bound antibodies were visualized by corresponding HRP-conjugated secondary antibodies
(§4) using enhanced chemiluminescence technique (Pierce). Quantification of immunoblots was performed on a LAS-4000 image reader and analyzed using the Multi-Gauge V3.0 software (both Fujifilm Life Science).
as §1, §2

[3] = tested on: human TREM2; experiment: MALDI-TOF mass spectrometry analysis of TREM2 ectodomain cleavage (C-terminal fragment) in HEK293 cells; format: cell-based; details: C-terminally FLAG-tagged TREM2 in HEK293 cells; FIG. 1B; listed as GI
Description: HEK293 Flp-In cells stably expressing WT and H157Y TREM2 were harvested in PBS. Cell pellets were frozen at −20° C. until use. Cells were lysed in lysis buffer (4% DDM, 0.1% N-octylglucoside, 10 mM Tris-HCl, pH 8.0, 5 mM EDTA, and 140 mM NaCl) containing protease inhibitor mix (Sigma-Aldrich) for 20 min on ice. Following a clarifying spin at 13,000 g for 20 min, supernatants were subjected to a second clarifying spin by centrifugation at 100,000 g for 1 h, and incubated with anti-FLAG M2-agarose (Sigma-Aldrich) overnight by rotation at 4° C. Beads were washed four times with IP/MS buffer (0.1% N-octylglucoside, 10 mM Tris-HCl, pH 8.0, 5 mM EDTA, and 140 mM NaCl) and two times with water. Beads were stored at −20° C. until IP/MS analysis.
IP/MS analysis was performed using Voyager DE STR (Applied Biosystems) as described previously). Immunoprecipitated peptides were eluted with TFA/CH3CN/water (1:20:20) saturated with α-cyano-4-hydroxy cinnamic acid. The dissolved samples were dried on a stainless plate and subjected to MALDI-TOF MS analysis.

[4] = molecular target: T1, human TREM2; details: Kleinberger et al, 2014; cited from earlier work
[5] = molecular target: T1, human TREM2; experiment: Anti-HA immunoblotting of soluble TREM2 (sTREM2) from conditioned media of HEK cells stably overexpressing wt TREM2; format: cell-based; details: antibody 50 μg/mL, 24 hrs; FIG. 7A top blot
Description: as §3, §4
1*10^6-1.5*10^6 cells were seeded in the 6-well format. 24 hours later fresh medium was added to the cells. Antibody clones as generated by Dr. Feederle (Helmholtz Center Munich, Core Facility Monoclonal Antibody Development) were added simultaneously, i.e. for overnight treatment (about 24 hrs), at a final concentration of 50 μg/mL. On the next day, conditioned media and cells were collected and processed as described under “Preparation of conditioned media, cell lysates, and immunoblotting”. […]

| Molecule | decrease in shedding (sTREM2 ELISA) ([1]; ADAM10 inhibitor 5 μM, about 24 hrs, positive control, normalized to immature TREM2) | levels of mature TREM2, result in words ([2]; ADAM10 inhibitor 5 μM, positive control) | TREM2 C-terminal fragment cleavage peak in MALDI-TOF mass spectra upon ADAM inhibition [3] | inhibition of TREM2 cleavage (literature) [4] | sTREM2 levels (ELISA), result in words ([1]; antibody 50 μg/mL, 24 hrs, normalized to immature TREM2, FIG. 7B) | activity to inhibit TREM2 cleavage (summary statement) ([1]; ranking among the antibody clones of the Examples) | increase in levels of mature TREM2 in the membrane fraction (immunoblot), result in words ([2]; antibody 50 μg/mL, 24 hrs, FIG. 7A bottom blot) | levels of mature TREM2 in the membrane fraction (quantified immunoblots), result in words ([2]; antibody 50 μg/mL, 24 hrs, normalized to immature TREM2, FIG. 7C) | extent of ectodomain cleavage (sTREM2 immunoblot), result in words [5] |
| --- | --- | --- | --- | --- | --- | --- | --- | --- | --- |
| CNC(=O)[C@@H](NC(=O)[C@H](CCCc1ccccc1)[C@H](C)N(O)C=O)C(C)(C)C [G1254023X] | about 60% | increased levels of mature TREM2 | no identified peak; also recorded: did not show any peak | strongly inhibit cleavage | – | – | – | – | – |
| B1 | – | – | – | – | decreases in sTREM2 levels comparable to the ADAM10 inhibitor G1254023X; also recorded: decreased levels of sTREM2 | very high activity to inhibit TREM2 cleavage | comparable to if not higher than the increase as seen with the ADAM10 inhibitor G1254023X | increases in levels of mature TREM2 comparable to or even higher than the ADAM10 inhibitor G1254023X; also recorded: increases in levels of mature TREM2 in the membrane fraction | strongly reduce the extent of ectodomain cleavage |
